How the values were obtained:
GST–lamin A = target: T1, GST–lamin A (human, UniProt P02545 1-646); test: pull-down
T1 sequence (looked up): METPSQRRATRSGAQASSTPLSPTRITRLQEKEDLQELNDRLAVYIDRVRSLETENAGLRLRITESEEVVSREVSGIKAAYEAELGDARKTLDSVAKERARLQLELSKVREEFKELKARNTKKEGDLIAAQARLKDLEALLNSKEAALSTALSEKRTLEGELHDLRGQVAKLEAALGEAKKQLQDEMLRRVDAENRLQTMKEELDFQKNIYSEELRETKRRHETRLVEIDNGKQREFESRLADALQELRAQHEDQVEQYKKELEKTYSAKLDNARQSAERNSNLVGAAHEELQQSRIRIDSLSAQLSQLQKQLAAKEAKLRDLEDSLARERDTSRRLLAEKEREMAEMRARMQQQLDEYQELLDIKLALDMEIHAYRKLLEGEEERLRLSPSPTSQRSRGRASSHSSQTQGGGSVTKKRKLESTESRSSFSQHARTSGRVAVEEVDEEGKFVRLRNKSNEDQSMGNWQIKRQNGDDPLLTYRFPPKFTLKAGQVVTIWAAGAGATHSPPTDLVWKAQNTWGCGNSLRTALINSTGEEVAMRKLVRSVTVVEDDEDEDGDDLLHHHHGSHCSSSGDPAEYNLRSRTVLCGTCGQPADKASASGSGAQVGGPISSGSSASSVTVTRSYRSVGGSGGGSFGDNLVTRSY

GST–prelamin A = target: T2, GST–prelamin A (human, UniProt P02545 1-664); test: pull-down
T2 sequence (looked up): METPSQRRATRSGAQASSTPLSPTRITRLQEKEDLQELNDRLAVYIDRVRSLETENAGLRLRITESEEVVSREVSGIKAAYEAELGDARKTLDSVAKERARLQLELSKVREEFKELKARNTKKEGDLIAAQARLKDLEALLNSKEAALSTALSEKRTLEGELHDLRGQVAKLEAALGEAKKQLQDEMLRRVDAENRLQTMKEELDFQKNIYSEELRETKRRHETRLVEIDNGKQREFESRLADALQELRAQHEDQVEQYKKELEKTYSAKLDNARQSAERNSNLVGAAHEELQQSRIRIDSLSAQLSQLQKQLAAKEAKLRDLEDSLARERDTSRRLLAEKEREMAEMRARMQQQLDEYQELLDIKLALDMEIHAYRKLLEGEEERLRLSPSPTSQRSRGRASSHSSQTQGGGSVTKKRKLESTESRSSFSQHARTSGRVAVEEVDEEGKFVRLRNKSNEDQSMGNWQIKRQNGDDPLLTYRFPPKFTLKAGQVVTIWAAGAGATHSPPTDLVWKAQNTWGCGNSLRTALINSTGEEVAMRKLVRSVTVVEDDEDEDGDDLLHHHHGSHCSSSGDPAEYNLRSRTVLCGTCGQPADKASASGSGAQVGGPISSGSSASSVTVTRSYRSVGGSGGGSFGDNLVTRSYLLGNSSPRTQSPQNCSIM

B1: CK2β (in vitro pull-down) (natural protein)
chain: not shown
GST–lamin A
  binding result: binds
GST–prelamin A
  binding result: binds

From article PMC6426468 (Science Advances, 2019)
